Results: patent US20220242962A1 (APTEVO RESEARCH AND DEVELOPMENT, published 2022)
Residue numbers refer to the chain shown, from its start. In names and notes the source's numbering stands. Like-named read-outs stand apart in the source and are kept apart here.

B1: FXX01066 (bispecific antibody)
chain: EVQLVQSGAEVKKPGASVKVSCKASGYTFTSYWMNWVRQAPGQGLEWMGNIYPSGGSTNYAQKFQGRVTMTVDTSTSTVYMELSSLRSEDTAVYYCASFSDGYYAYAMDYWGQGTLVTVSSGGGGSGGGGSGGGGSGGGGSEIVMTQSPATLSLSPGERATLSCRASQSVSSYLNWYQQKPGQAPRLLIYYASRRHTGIPARFSGSGSGTDFTLTISSLQPEDFAVYYCQQGYNLPYTFGQGTKVEIKEPKSSDKTHTCPPCPAPPAAAPSVFLFPPKPKDTLMISRTPEVTCVVVDVSHEDPEVKFNWYVDGVEVHNAKTKPREEQYNSTYRVVSVLTVLHQDWLNGKEYKCAVSNKALPAPIEKTISKAKGQPREPQVYTLPPSRDELTKNQVSLTCLVKGFYPSDIAVEWESNGQPENNYKTTPPVLDSDGSFFLYSKLTVDKSRWQQGNVFSCSVMHEALHNHYTQKSLSLSPGGGGSPSSYVLTQPPSVSVAPGQTARITCGGNNIGSKSVNWFQQKPGQAPVLVVYDDSGRPSGIPERFSGSTSGNTATLTISRVEAGDEADYYCQVWDSSSDHVVFGGGTKLTVLGGGGSGGGGSGGGGSGGGGSQVQLVESGGGVVQPGRSLRLSCAASGFTLSYYGMHWVRQAPGKGLEWVAAISHDGSDKYYADSVKGRFTISRDNSKNTLYLQMNSLRAEDTAVYYCSNDQFDPWGQGTLVTVSSR
notes: ADAPTIR scFv-Fc-scFv, anti-4-1BB (VH-VL) N-terminal, anti-OX40 C-terminal, PAA (del) Fc; also called FX01066
B2: FXX01115 (bispecific antibody)
chain: B1 chain with I541V, E543N, T690R
notes: ADAPTIR anti-4-1BB x anti-OX40, pI variant; PAA (del) Fc
B3: FXX01101 (bispecific antibody)
chain: B1 chain with T690R
notes: ADAPTIR anti-4-1BB (HL) x anti-OX40 with T86R; PAA (del) Fc; also called FX01101
B4: FXX01119 (bispecific antibody)
chain: B1 chain with Q500K, I541V, E543N, T690R
notes: as for B2
B5: FXX01102 (bispecific antibody)
chain: B1 chain with Q500K, T690R
notes: ADAPTIR anti-4-1BB (HL) x anti-OX40 with Q17K and T86R; PAA (del) Fc; also called FX01102
B6: FXX01111 (bispecific antibody)
chain: B1 chain with I541V, E543N
notes: as for B2

Assays:
Fc gamma receptor RI = target: T1, Fc gamma receptor RI (human, UniProt P12314 16-288); experiment: SPR, construct immobilized, receptor injected at 100 nM
T1 construct: also called FcγRI
Protocol: (§1) Fcγ receptor binding to bispecific proteins was measured by Surface Plasmon Resonance on a Biacore 8K instrument at room temperature. Bispecific proteins with modified Fc regions to reduce binding to Fcγ receptors were directly immobilized on the surface of a CM5 sensor chip to a surface density of 4000 RU. A bispecific ADAPTIR™ protein with a wild type Fc was similarly immobilized to the surface as a positive control and used as a comparator to evaluate the reduction in binding resulting from changes incorporated into the Fc region amino acid sequence. Fcγ receptors (purchased from R&D Systems) were diluted to either 100 nM (FcγRI) or 2 μM (all other Fcγ receptors) in HBS-EP+ buffer before injecting over the surface of the prepared sensor chip at 30 μL/min for 60 seconds. Maximum RU values during association phase of each injection were used to compare the extent of binding of the modified Fc to wild type value and are reported in Table 17 below.

Full-length Human OX40 [1] = target: T2, Full-length Human OX40 (human, UniProt P43489 29-277); experiment: cell-based or functional assay
T2 sequence: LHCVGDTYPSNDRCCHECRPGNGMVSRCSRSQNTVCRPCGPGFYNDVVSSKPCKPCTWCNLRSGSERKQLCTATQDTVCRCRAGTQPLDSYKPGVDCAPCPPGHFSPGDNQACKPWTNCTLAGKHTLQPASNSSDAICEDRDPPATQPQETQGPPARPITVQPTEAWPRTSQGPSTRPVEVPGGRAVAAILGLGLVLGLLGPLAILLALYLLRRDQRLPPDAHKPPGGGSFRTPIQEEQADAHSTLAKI

Full-length Human 4-1BB [2] = target: T3, Full-length Human 4-1BB (human, UniProt Q07011 24-255); experiment: cell-based or functional assay
Target sequence in this assay (Q07011 24-255): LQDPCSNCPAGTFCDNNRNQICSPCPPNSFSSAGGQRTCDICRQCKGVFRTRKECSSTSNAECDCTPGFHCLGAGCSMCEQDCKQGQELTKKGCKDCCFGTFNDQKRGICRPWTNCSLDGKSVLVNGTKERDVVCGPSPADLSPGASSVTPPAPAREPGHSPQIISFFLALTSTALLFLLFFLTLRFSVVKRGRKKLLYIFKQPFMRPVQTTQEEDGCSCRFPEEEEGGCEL

Full-length Human OX40 [3] = target: T2, Full-length Human OX40; experiment: cell-based or functional assay; remark: listed apart in the source
Full-length Human 4-1BB [4] = target: T3, Full-length Human 4-1BB; experiment: cell-based or functional assay; remark: listed apart in the source
Target sequence in this assay (Q07011 24-255): as above

Human OX40 ECD-AFH = target: T4, Human OX40 ECD-AFH (human); experiment: SPR, construct captured, monomeric ECD as analyte
T4 construct: ECD'; entry includes the C-terminal tags; also called OXF003; Human OX40 ECD-avi-flag-his
T4 chain: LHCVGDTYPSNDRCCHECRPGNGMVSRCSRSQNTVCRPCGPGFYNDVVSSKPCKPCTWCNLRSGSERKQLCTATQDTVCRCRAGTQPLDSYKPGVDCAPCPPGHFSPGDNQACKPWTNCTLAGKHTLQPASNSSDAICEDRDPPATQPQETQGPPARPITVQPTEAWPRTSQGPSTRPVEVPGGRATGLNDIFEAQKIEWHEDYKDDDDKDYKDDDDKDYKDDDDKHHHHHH
Protocol: (§2) Mouse anti-human IgG (GE, BR-1008-39) at 25 μg/ml in 10 mM sodium acetate pH 5.0 was immobilized at a density of ˜10,000 response units (RU) onto each flow cell of a CM5 research-grade sensor chip (GE) by standard amine coupling chemistry. Each binding protein at approximately 100 nM in HBS-EP+ with 0.2% BSA buffer was captured in a flow cell with the immobilized anti-human IgG at a flow rate of 10 μL/min for 20 seconds, leaving one flow cell surface unmodified as the reference. Using a single-cycle kinetics mode, five different concentrations of ECD were sequentially injected through each flow cell at 30 μL/min for 300 seconds followed by a 600 second dissociation period. Regeneration was achieved by injection of 3 M MgCl₂ at a flow rate of 30 μL/min for 30 seconds followed by HBS-EP+ with 0.2% BSA buffer stabilization for 1 min.
(§3) Sensorgrams obtained from kinetic SPR measurements were analyzed by the double subtraction method. The signal from the reference flow cell was subtracted from the analyte binding response obtained from flow cells with immobilized or captured ligands. Buffer reference responses were then averaged from multiple injections. The averaged buffer reference responses were then subtracted from analyte binding responses, and the final double-referenced data were analyzed with Biacore T200 Evaluation software (2.0, GE), globally fitting data to derive kinetic parameters. All sensorgrams were fitted using a simple one-to-one binding model.
(§4) Protein was produced by transient expression, purified by ProA chromatography and prep SEC.

Human 4-1BB ECD-AFH = target: T5, Human 4-1BB ECD-AFH (human); experiment: SPR, construct captured, monomeric ECD as analyte
T5 construct: entry includes the tags; also called FOB003; HUMAN CD137 ECD-AVI-FLAG-HIS
Protocol: as §2, §3, §4

Full-length Human 4-1BB [5] = target: T3, Full-length Human 4-1BB; experiment: flow cytometry, Jurkat cells expressing human 4-1BB
Protocol: FIGS. 12A-12D show the binding of anti-4-1BB x anti-OX40 constructs, with additional humanization in 4-1BB and altered orientations of binding domains, human (12A) or cynomolgus (12C) 4-1BB-expressing Jurkat cells or human (12B) or cynomolgus (12D) OX40-expressing CHOK1SV cells. Serial dilutions of ADAPTIR™ constructs were incubated with transfected cells and subsequently labelled with a fluorescently-conjugated goat-a-human Fc secondary antibody. […] (See Example 19.)
Binding studies were performed using the flow cytometry-based staining procedures described above.

Fc gamma receptor RIIIB = target: T6, Fc gamma receptor RIIIB (human, UniProt O75015 17-200); experiment: SPR, construct immobilized, receptor injected at 2 uM
T6 construct: soluble SPR analyte
Protocol: as §1

[6] = target: T7, Fc gamma receptor RIIIA V176 (human, UniProt P08637 17-208); experiment: as above
T7 construct: soluble SPR analyte
Protocol: as §1

T1 sequence (P12314 16-288 limits assumed): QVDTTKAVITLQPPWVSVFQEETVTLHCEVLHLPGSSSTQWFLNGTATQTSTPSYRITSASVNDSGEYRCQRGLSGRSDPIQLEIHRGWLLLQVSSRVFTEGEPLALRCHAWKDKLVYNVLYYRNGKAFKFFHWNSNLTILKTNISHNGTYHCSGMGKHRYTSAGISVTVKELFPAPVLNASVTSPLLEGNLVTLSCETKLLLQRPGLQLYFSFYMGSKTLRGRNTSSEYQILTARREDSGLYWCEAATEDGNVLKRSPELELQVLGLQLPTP
T5 sequence (chain, as listed by the source limits assumed): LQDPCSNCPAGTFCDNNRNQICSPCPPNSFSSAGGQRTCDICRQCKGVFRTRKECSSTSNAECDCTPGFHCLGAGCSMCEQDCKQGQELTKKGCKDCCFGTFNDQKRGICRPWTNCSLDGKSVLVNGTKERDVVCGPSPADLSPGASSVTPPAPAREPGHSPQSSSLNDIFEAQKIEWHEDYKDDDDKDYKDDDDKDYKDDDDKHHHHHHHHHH
T7 sequence (P08637 17-208 F176V): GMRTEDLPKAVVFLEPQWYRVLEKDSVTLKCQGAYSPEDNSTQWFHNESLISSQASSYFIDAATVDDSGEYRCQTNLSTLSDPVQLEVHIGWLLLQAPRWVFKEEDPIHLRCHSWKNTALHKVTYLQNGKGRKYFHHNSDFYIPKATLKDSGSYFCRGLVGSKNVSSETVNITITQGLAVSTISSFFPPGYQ
T6 sequence (O75015 17-200): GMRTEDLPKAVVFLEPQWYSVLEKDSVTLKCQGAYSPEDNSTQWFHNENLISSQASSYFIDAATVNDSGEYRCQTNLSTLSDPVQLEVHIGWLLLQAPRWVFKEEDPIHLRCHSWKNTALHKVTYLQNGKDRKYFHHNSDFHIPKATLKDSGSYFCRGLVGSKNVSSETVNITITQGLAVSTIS

Row | Max RU value during association (Fc gamma receptor RI) [RU] | OX40 Reporter Assay EC50 (Full-length Human OX40 [1]) [pM] | OX40 Reporter Assay Max induction (Full-length Human OX40 [1]) | 4-1BB Reporter Assay EC50 (Full-length Human 4-1BB [2]) [pM] | 4-1BB Reporter Assay Max induction (Full-length Human 4-1BB [2]) | OX40 Reporter Assay EC50 (Full-length Human OX40 [3]) [pM] | OX40 Reporter Assay Max induction (Full-length Human OX40 [3]) | 4-1BB Reporter Assay EC50 (Full-length Human 4-1BB [4]) [pM] | 4-1BB Reporter Assay Max induction (Full-length Human 4-1BB [4]) | Kd (Human OX40 ECD-AFH) [pM] | koff (Human OX40 ECD-AFH) [s⁻¹] | kon (Human OX40 ECD-AFH) [M⁻¹ s⁻¹] | Kd (Human 4-1BB ECD-AFH) [pM] | koff (Human 4-1BB ECD-AFH) [s⁻¹] | kon (Human 4-1BB ECD-AFH) [M⁻¹ s⁻¹] | EC50 (Full-length Human 4-1BB [5]) [pM] | max MFI (Full-length Human 4-1BB [5]) [MFI] | Max RU value during association (Fc gamma receptor RIIIB) [RU] | Max RU value during association [6] [RU] | Binder
1 | 0 | 12 | 1.99e+06 | 18 | 5.5e+06 | 12 | 534000 | 19 | 6.1e+06 | 500 | 0.00031 | 680000 | 15000 | 0.0045 | 290000 | 230 | 4710 | – | – | B1
2 | – | – | – | – | – | – | – | – | – | – | – | – | – | – | – | – | – | 0 | 0 | B2
3 | 0 | 11 | 2.03e+06 | 19 | 6.96e+06 | – | – | – | – | 600 | 0.00041 | 630000 | 16000 | 0.0046 | 290000 | 250 | 4850 | – | – | B3
4 | – | – | – | – | – | – | – | – | – | – | – | – | – | – | – | – | – | – | 0 | B4
5 | – | 10 | 2.05e+06 | 14 | 6.94e+06 | – | – | – | – | 400 | 0.0003 | 710000 | 15000 | 0.0043 | 290000 | 180 | 4850 | – | – | B5
6 | 0 | – | – | – | – | – | – | – | – | – | – | – | – | – | – | – | – | – | – | B6
